This passage reports Km and kcat results from PMC12093947, “Cobalt modulates methanol turnover of the alcohol dehydrogenase in Desulfofundulus kuznetsovii strain TPOSR” (Applied and Environmental Microbiology, 2025).

The test system of the data set is NC(=O)c1ccc[n+]([C@@H]2O[C@H](COP(=O)(O)OP(=O)(O)OC[C@H]3O[C@@H](n4cnc5c(N)ncnc54)[C@H](O)[C@@H]3O)[C@@H](O)[C@H]2O)c1. The experiment in a line: purified protein. The following applies: without added Co, methanol 0.75-3000 mM, 50 mM Bis-tris propane, 55 °C, rapid-equilibrium, NAD+ binds first, brackets 95% confidence interval, varied: cofactor.

Broadly, the kcat is the maximal rate divided by the concentration of active sites. “TPOSR Adh1 (Desulfofundulus kuznetsovii)”: the Km is 0.550 [0.26, 1.3] mM and the turnover number (kcat) turned out to be 1.76 s⁻¹.
